# Source: publication PMC8442553 (Science (New York, N.Y.), 2019)
# Legend:
# Assay in all cases: cryo-EM structure
# Rsc7 = molecular target: T1, Rsc7 (yeast, UniProt P32832 1-435)
# T1 sequence: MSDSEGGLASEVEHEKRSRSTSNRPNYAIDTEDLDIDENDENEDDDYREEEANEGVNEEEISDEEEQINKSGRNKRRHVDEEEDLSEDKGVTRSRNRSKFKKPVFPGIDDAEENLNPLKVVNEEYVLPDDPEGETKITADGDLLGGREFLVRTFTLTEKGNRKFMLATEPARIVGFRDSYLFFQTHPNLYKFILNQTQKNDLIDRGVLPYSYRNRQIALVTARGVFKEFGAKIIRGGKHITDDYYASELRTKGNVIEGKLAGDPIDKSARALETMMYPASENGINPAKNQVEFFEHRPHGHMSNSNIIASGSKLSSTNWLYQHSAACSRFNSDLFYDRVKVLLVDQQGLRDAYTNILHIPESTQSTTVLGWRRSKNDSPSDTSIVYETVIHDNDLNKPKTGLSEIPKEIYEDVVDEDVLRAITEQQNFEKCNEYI
# Sth1 = molecular target: T2, Sth1 (yeast, UniProt P32597 1-1359)
# T2 sequence: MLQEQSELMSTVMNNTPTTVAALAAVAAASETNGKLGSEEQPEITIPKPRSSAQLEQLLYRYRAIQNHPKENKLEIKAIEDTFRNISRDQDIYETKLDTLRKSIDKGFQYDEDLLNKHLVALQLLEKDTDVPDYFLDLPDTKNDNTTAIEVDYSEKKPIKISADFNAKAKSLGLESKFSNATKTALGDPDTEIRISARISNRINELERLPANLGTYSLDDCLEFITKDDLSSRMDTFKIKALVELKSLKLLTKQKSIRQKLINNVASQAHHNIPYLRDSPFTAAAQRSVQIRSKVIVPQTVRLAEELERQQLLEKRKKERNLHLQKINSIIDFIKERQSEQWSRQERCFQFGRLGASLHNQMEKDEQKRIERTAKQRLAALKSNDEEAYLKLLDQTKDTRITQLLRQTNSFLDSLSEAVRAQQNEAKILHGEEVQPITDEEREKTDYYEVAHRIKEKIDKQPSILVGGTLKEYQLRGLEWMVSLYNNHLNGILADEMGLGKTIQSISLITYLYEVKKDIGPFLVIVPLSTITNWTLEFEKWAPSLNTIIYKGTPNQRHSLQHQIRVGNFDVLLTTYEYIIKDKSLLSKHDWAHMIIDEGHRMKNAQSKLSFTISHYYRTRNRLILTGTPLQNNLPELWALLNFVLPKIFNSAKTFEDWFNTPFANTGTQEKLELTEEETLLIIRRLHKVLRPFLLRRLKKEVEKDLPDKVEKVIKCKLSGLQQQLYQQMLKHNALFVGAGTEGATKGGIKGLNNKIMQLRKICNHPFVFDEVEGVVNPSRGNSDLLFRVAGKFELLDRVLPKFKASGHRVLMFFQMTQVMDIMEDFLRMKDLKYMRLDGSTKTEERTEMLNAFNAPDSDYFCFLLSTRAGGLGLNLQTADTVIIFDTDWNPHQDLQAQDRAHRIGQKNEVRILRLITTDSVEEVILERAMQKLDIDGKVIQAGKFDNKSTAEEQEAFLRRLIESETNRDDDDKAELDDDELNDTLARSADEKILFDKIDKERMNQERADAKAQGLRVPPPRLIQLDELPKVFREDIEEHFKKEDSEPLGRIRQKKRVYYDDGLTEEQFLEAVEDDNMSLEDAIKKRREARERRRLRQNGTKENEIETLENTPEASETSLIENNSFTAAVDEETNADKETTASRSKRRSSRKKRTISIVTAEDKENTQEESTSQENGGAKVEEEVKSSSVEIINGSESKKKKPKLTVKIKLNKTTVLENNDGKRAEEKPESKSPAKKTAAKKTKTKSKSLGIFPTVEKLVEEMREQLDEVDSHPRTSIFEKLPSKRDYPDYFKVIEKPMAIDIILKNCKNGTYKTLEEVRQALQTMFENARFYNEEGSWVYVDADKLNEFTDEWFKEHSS
# cryo-EM structure = molecular target: the molecule itself
# Rsc3 = molecular target: T3, Rsc3 (yeast, UniProt Q06639 1-885)
# T3 sequence: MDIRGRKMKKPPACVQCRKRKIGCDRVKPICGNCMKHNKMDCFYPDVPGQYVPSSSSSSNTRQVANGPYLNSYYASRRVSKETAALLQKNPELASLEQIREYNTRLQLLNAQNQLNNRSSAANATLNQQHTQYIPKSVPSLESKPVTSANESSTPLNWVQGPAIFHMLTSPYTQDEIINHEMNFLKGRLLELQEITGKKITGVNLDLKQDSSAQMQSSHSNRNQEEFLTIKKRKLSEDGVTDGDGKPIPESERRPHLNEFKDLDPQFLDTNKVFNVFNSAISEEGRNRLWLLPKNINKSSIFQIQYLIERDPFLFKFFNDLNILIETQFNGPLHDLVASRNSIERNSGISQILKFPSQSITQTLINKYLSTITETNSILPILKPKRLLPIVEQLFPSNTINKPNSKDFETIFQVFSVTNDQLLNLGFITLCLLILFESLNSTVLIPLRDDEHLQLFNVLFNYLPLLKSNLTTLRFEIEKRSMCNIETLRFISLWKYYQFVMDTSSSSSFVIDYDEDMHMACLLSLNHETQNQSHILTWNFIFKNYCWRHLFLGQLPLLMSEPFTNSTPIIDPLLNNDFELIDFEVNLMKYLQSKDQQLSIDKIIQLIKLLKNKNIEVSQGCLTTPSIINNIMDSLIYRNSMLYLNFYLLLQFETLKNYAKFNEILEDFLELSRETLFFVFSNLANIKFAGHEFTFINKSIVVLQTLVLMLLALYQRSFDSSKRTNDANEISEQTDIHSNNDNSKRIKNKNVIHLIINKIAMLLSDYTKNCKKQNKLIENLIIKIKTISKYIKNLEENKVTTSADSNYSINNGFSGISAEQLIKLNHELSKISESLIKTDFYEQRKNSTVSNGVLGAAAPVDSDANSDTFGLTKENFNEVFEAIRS
binder,measurement,setting,value
"Sfh1 (natural protein, yeast) MSHQNQLIPQAYISNFHNRLTNEDDGIPIFTMAQQTRQHKRAKVVNYAEYDNDLFDEFNMNGSNFNNADTHYKDNAVSHENTPALTNGVTMDGSEYNVLENMNGADSIISNNKYDAGSNMVVESLSGLNSNNNASNGPSNKAQAQDIGNAVLPDLQDQHHNPFNILRYPKIRDTFINGKVVSPYRLNTDQETKANANSGEAIMIPITLDIEHMGHTIKDQFLWNYNDDSISPEEFASIYCKDLDMTSATLQTQIANIIKEQLKDLENIAATEIMSDLHVIINLTCNLQDRFFEDNFQWNLNDKSLTPERFATSIVQDLGLTREFIPLISQSLHETILKIKKDWVDGHLIQDHVPNDAAFGYLSGIRLDIDELGSNWCPRVEILTKEEIQKREIEKERNLRRLKRETDRLSRRGRRRLDDLETTMRM",binding result,Rsc7,binds
"Rsc8 (natural protein, yeast) MSDTEKDKDVPMVDSHEATEEPPTTSTNTPSFPHLAQEQAKEESATLGAEVAHKKINYEQEAQKLEEKALRFLAKQTHPVIIPSFASWFDISKIHEIEKRSNPDFFNDSSRFKTPKAYKDTRNFIINTYRLSPYEYLTITAVRRNVAMDVASIVKIHAFLEKWGLINYQIDPRTKPSLIGPSFTGHFQVVLDTPQGLKPFLPENVIKQEVEGGDGAEPQVKKEFPVNLTIKKNVYDSAQDFNALQDESRNSRQIHKVYICHTCGNESINVRYHNLRARDTNLCSRCFQEGHFGANFQSSDFIRLENNGNSVKKNWSDQEMLLLLEGIEMYEDQWEKIADHVGGHKRVEDCIEKFLSLPIEDNYIREVVGSTLNGKGGDSRDGSVSGSKLMECVNDAVQTLLQGDDKLGKVSDKSREISEKYIEESQAIIQELVKLTMEKLESKFTKLCDLETQLEMEKLKYVKESEKMLNDRLSLSKQILDLNKSLEELNVSKKLVLISEQVDSGIQLVEKDQEGDDEDGNTATGHGVKRVGKEGEEVGEGDSIAKLQPQVYKPWSL",binding result,Sth1,binds
same,binding result,cryo-EM structure,binds
"Rsc30 (natural protein, yeast) MMDMQVRKVRKPPACTQCRKRKIGCDRAKPICGNCVKYNKPDCFYPDGPGKMVAVPSASGMSTHGNGQGSNHFSQGNGVNQKNVMIQTQYPIMQTSIEAFNFSFNPSVDTAMQWTKAASYQNNNTNNNTAPRQNSSTVSSNVHGNTIVRSDSPDVPSMDQIREYNTRLQLVNAQSFDYTDNPYSFNVGINQDSAVFDLMTSPFTQEEVLIKEIDFLKNKLLDLQSLQLKSLKEKSNLNADNTTANKINKTGENSKKGKVDGKRAGFDHQTSRTSQSSQKYFTALTITDVQSLVQVKPLKDTPNYLFTKNFIIFRDHYLFKFYNILHDICHINQFKVSPPNNKNHQQYMEVCKVNFPPKAIIIETLNSESLNNLNIEEFLPIFDKTLLLEFVHNSFPNGDTCPSFSTVDLPLSQLTKLGELTVLLLLLNDSMTLFNKQAINNHVSALMNNLRLIRSQITLINLEYYDQETIKFIAITKFYESLYMHDDHKSSLDEDLSCLLSFQIKDFKLFHFLKKMYYSRHSLLGQSSFMVPAAENLSPIPASIDTNDIPLIANDLKLLETQAKLINILQGVPFYLPVNLTKIESLLETLTMGVSNTVDLYFHDNEVRKEWKDTLNFINTIVYTNFFLFVQNESSLSMAVQHSSNNNKTSNSERCAKDLMKIISNMHIFYSITFNFIFPIKSIKSFSSGNNRFHSNGKEFLFANHFIEILQNFIAITFAIFQRCEVILYDEFYKNLSNEEINVQLLLIHDKILEILKKIEIIVSFLRDEMNSNGSFKSIKGFNKVLNLIKYMLRFSKKKQNFARNSDNNNVTDYSQSAKNKNVLLKFPVSELNRIYLKFKEISDFLMEREVVQRSIIIDKDLESDNLGITTANFNDFYDAFYN",binding result,Rsc3,binds
